From PMC7704496, “RNA and DNA Binding Epitopes of the Cold Shock Protein TmCsp from the Hyperthermophile Thermotoga maritima”

Tests used:
Conditions in all cases: protein: recombinant; tags: none stated; chain copies: 2; label: none (5'-fluorescein in EMSA); single strand
[1] = target: T1, TmCsp (cold shock protein) (Thermotoga maritima, UniProt O54310 1-66); assay: Trp fluorescence quenching; 303 K; EMSA: 50 mM NaH2PO4 pH 6.5, 20 mM NaCl, 0.2 mM EDTA, room temperature 1 h, 20% gel in 1xTBE at 4 C; NMR: 50 mM sodium phosphate pH 6.5, 20 mM NaCl, 0.2 mM EDTA
[2] = target: T1, TmCsp (cold shock protein); assay: Trp fluorescence quenching; 343 K; EMSA: 50 mM NaH2PO4 pH 6.5, 20 mM NaCl, 0.2 mM EDTA, room temperature 1 h, 20% gel in 1xTBE at 4 C; NMR: 50 mM sodium phosphate pH 6.5, 20 mM NaCl, 0.2 mM EDTA
[3] = target: T1, TmCsp (cold shock protein); assay: Trp fluorescence quenching; 323 K; EMSA: 50 mM NaH2PO4 pH 6.5, 20 mM NaCl, 0.2 mM EDTA, room temperature 1 h, 20% gel in 1xTBE at 4 C; NMR: 50 mM sodium phosphate pH 6.5, 20 mM NaCl, 0.2 mM EDTA

T1 sequence (O54310 whole entry): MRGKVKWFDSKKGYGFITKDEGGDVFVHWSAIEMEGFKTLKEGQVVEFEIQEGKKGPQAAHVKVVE

Binder | Kd [1] [nM] | Kd [2] [nM] | Kd [3] [nM]
GGGGGGG (ssDNA) [(dG)7] | 3400 ± 100 | 5600 ± 100 | 
CCCCCCC (ssDNA) [(dC)7] | 2800 ± 100 | 11000 ± 100 | 
UUUUUUU (ssRNA) [(rU)7] | 10.8 ± 0.8 | 17400 ± 100 | 1520 ± 10
AAAAAAA (ssDNA) [(dA)7] | 5000 ± 200 |  | 
TTTTTTT (ssDNA) [(dT)7] | 4 ± 0.2 | 1600 ± 40 | 440 ± 20
